For 1 molecule, Kd results are on record in article PMC2566858 (Nucleic Acids Research, 2008).

Substitutions are numbered along the chain they refer to. Where two headings read alike, the source gives them in different places.

What all share (experiment): fluorescence anisotropy
Series [1] has as its target T1, rGyr_fl Y851F (full-length reverse gyrase) (Thermotoga maritima, UniProt O51934 1-1104, Y851F).
T1 sequence: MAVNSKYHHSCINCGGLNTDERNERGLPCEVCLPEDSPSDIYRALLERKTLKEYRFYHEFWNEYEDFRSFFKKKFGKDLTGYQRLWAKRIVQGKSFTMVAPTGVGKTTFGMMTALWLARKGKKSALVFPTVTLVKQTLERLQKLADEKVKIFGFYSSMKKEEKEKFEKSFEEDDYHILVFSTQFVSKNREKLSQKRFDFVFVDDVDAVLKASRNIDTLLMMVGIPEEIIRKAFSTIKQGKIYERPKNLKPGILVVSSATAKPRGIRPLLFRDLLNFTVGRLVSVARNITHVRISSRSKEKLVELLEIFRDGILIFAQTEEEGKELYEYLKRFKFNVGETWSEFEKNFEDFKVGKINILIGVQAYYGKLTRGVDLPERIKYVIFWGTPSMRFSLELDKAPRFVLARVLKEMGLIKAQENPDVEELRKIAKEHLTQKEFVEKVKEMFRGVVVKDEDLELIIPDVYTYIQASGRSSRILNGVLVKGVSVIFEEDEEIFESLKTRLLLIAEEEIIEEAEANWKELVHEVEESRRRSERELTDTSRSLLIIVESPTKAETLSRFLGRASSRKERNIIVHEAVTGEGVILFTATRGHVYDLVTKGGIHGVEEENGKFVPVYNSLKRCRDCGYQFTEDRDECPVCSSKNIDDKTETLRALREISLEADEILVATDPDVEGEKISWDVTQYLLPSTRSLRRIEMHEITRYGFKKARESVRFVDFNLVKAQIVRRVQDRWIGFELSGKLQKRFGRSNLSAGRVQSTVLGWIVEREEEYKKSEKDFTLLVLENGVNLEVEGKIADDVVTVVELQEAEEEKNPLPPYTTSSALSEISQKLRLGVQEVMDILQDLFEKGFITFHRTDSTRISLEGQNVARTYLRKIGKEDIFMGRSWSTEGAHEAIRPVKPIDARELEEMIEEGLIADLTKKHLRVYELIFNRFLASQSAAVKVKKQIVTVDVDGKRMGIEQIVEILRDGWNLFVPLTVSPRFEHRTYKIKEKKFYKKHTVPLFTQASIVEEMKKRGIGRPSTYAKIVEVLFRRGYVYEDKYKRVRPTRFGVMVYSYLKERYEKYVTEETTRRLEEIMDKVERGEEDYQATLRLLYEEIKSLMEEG

Series [2] concerns the target T1, rGyr_fl Y851F (full-length reverse …). The source holds these as a separate data set.
The next series has as its target T2, rGyr_hel K106Q (Thermotoga maritima, UniProt O51934 59-541, K106Q).
T2 sequence: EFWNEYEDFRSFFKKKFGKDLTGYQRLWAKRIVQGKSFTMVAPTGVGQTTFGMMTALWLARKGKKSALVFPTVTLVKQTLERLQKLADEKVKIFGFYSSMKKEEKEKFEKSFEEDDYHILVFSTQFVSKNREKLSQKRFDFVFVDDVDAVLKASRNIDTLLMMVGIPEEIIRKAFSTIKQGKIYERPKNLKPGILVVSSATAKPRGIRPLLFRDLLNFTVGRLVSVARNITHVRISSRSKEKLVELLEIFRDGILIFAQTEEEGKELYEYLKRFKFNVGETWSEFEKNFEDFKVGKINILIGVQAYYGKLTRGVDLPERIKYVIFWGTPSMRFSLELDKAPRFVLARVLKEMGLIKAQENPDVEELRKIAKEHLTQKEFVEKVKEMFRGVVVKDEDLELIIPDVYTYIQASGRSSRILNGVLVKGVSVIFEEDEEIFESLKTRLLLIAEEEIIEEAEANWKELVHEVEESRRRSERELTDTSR

For series [3], the target named is T3, rGyr_hel (reverse gyrase helicase-like domain) (Thermotoga maritima, UniProt O51934 59-541).
T3 sequence: T2 sequence with Q48K

In series [4] the target is T1, rGyr_fl Y851F (full-length reverse …). The source holds these as a separate data set.
Series [5] has the same target. The source holds these as a separate data set.

B1: 60-base ssDNA (ssDNA)
DNA: AAGCCAAGCTTCTAGAGTCAGCCCGTGATATTCATTACTTCTTATCCTAGGATCCCCGTT
As to B1, the dissociation constant Kd (in general, a measure of binding affinity in units of concentration) in series [1] is 38 ± 2 nM; in series [2] it was 39 ± 1 nM; with rGyr_hel K106Q, 180 ± 30 nM; in series [3], 600 ± 70 nM; in series [4], 45 ± 2 nM; in series [5], 41 ± 1 nM.
